From paper PMC8324494 (Cell Reports Medicine, 2021)

What was measured:
[1] = biological target: human GPC2 on the surface of cells (GPC2 pLenti CMV puro vector) (Homo sapiens (Human)., UniProt Q8N158); experiment: flow cytometry on cells
[2] = biological target: endogenous GPC2 on high-GPC2-expressing neuroblastoma cell lines (Homo sapiens (Human)., UniProt Q8N158); experiment: flow cytometry on cells
[3] = biological target: murine Gpc2 on the surface of cells (Gpc2 pLenti CMV puro vector) (Mus musculus (Mouse)., UniProt Q8BKV1); experiment: flow cytometry on cells
Sequence of murine Gpc2 on the surface of cells (Gpc2 pLenti CMV puro vector) (Q8BKV1 22-556): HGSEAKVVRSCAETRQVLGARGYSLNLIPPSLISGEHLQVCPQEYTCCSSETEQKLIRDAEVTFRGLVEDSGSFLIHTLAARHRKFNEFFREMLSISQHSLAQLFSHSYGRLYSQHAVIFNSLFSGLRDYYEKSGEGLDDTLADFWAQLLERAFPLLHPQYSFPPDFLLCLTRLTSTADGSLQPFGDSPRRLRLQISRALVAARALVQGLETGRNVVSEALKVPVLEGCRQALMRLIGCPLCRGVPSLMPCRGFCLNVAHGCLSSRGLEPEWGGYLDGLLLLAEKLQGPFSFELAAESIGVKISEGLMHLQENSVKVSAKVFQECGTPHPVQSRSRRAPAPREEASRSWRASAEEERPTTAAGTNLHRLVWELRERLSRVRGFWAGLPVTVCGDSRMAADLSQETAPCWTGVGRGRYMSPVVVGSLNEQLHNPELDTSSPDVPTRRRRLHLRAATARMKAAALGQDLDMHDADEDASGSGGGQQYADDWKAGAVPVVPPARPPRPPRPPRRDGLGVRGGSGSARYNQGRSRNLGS

[4] = biological target: GPC2 clone of the Membrane Proteome Array (Homo sapiens (Human)., UniProt Q8N158); experiment: flow cytometry on cells
Sequence of GPC2 clone of the Membrane Proteome Array (Q8N158 24-554): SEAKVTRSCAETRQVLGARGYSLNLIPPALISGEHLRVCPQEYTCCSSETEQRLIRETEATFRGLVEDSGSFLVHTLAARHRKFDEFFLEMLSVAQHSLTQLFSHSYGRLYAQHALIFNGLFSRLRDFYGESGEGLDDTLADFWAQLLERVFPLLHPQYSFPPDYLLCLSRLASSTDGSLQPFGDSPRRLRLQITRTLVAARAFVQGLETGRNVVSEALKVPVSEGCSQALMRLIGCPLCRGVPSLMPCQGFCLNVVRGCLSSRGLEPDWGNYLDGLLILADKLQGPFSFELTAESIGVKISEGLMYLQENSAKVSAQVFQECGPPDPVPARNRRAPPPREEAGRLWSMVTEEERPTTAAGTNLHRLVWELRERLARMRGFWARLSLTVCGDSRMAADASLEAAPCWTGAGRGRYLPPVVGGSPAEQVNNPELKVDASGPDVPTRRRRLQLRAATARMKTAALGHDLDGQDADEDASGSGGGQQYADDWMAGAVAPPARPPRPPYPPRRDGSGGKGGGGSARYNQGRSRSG

[5] = biological target: GPC2^24-554 (fully glycanated) (Homo sapiens (Human)., UniProt Q8N158); experiment: BLI
Sequence of GPC2^24-554 (fully glycanated) (Q8N158 24-554): as above

[6] = biological target: GPC2^24-493 (fully glycanated) (Homo sapiens (Human)., UniProt Q8N158); experiment: BLI
Sequence of GPC2^24-493 (fully glycanated) (Q8N158 24-493): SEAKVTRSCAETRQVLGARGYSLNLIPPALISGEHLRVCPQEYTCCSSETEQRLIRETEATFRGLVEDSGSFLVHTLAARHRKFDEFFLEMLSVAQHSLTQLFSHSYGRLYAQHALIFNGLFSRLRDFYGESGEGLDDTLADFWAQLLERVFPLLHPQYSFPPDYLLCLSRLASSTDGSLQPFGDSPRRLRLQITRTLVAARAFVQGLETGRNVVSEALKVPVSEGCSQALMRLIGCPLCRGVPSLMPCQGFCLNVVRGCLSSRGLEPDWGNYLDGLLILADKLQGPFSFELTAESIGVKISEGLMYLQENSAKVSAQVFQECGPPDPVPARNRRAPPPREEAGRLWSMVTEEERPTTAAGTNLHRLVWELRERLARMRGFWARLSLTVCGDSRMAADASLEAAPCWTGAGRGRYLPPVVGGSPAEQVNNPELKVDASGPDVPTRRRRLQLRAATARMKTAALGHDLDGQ

Measured: binding result

Sequence of endogenous GPC2 on high-GPC2-expressing neuroblastoma cell lines (Q8N158 24-554): as the sequence (Q8N158 24-554) above
Sequence of human GPC2 on the surface of cells (GPC2 pLenti CMV puro vector) (Q8N158 24-554): as above

B1: D3-GPC2-IgG1 (fully human GPC2 antibody, full-length human IgG1) (antibody, V domains shown)
VH: EVQLVETGGGVVKPGGSLRLSCAASGFTFSDYYMSWIRQAPGKGLEWVSYISSSGSTIYYADSVKGRFTISRDNSKNTLYLQMNSLRAEDTAVYYCARESGYDYVFDYWGQGTLVAVSS
VL: DIQMTQSPSTLSAFVGDRVTITCRASQSISSWLAWYQQKPGKAPKLLIYAASTLQSGVPSRFSGSGSGTEFTLTISSLQPEDFATYYCQQLNSYPITFGQGTRLEIK
binds: [1] | [2] | [3] | [4]

B2: D3-GPC2 antigen-binding fragment (D3-GPC2-Fab) (Fab, V domains shown)
VH: B1 VH
VL: B1 VL
binds: [5] | [6]
